T1: purified N-terminal region of Elp1 (S. cerevisiae)
T1 chain: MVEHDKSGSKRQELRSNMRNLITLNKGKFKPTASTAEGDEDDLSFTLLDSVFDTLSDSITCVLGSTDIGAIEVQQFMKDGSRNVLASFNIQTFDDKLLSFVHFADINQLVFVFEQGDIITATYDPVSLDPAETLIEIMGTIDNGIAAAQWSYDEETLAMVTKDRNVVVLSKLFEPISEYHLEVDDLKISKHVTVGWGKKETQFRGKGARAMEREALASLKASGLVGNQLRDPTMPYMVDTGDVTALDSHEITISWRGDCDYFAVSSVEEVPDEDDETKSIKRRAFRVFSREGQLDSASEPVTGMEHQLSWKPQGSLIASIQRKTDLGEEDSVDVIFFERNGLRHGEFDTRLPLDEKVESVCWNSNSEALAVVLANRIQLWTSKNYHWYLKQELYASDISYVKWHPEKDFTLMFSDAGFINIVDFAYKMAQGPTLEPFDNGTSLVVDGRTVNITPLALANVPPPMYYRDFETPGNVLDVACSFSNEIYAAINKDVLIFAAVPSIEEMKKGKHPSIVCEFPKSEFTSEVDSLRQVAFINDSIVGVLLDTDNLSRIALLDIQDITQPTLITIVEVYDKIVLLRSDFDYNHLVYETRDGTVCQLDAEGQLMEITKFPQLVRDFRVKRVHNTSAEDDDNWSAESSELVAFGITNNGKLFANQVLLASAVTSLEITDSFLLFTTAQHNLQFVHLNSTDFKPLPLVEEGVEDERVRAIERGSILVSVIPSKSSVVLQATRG

T2: GST-tagged full-length Elp1 (S. cerevisiae, UniProt Q06706 1-1349)
T2 construct: Elp1, Elongator subunit 1, S. cerevisiae; also called GST-Elp1; source: E. coli BL21 pSarRare, purified (NiNTA, S200 gel filtration); not shown: His6, N-terminal, kept; GST, N-terminal, kept
T2 sequence (looked up): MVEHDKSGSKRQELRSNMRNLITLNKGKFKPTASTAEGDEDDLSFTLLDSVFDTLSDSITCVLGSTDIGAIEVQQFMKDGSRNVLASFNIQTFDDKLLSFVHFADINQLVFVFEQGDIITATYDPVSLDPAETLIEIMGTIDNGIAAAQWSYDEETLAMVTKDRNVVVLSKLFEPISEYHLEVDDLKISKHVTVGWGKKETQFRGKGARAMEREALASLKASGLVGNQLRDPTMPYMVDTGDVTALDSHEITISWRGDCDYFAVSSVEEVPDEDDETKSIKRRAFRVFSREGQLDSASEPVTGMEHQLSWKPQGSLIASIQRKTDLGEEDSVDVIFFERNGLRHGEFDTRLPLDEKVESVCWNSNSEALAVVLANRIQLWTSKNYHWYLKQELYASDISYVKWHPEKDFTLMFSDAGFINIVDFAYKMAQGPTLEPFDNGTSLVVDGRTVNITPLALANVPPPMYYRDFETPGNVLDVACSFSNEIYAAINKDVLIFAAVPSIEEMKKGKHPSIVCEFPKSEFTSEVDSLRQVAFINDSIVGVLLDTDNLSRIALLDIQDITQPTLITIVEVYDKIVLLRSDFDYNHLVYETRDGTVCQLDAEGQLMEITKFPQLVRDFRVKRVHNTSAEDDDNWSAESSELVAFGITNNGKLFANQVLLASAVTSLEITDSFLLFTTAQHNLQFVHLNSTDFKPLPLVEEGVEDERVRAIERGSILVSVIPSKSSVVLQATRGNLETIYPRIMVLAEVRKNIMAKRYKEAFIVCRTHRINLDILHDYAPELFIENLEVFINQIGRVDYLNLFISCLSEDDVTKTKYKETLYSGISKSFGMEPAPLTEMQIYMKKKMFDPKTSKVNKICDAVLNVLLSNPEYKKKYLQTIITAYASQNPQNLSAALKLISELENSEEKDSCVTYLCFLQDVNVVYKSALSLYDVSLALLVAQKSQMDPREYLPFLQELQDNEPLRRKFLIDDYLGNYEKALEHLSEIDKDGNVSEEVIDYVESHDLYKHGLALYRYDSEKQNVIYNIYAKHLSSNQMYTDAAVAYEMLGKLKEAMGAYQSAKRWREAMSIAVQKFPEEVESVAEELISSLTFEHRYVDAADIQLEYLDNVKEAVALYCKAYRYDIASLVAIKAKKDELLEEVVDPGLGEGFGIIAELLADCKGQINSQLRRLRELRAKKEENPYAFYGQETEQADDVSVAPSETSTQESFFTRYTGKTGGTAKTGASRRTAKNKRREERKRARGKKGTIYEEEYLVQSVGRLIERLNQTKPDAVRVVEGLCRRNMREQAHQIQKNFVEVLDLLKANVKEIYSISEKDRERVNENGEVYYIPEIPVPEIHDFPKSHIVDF

B1: endogenous Elp4 (natural protein, UniProt Q02884 1-456, looked up)
chain: MSFRKRGEILNDRGSGLRGPLLRGPPRTSSTPLRTGNRRAPGNVPLSDTTARLKKLNIADESKTKMGLDSSHVGVRPSPATSQPTTSTGSADLDSILGHMGLPLGNSVLVEEQSTTEFHSILGKLFAAQGIVHNRISDSSADKTRNGDTHVIVLSLNQMFAKELPGIYKGSRKQMKKNLISEEESKVTVQNLNETQRSTPSRYKDLKIAWKYKLADEKRLGSPDRDDIQQNSEYKDYNHQFDITTRLMPAPIASELTFIAPTQPVSTILSQIEQTIKRNDKKLIRIVIPSLLHPAMYPPKMFESSEIIGLMHGVRSLVKKYYERVVLFASISIDIITPPLLVLLRNMFDSVINLEPFNQEMTEFLERVYKSQPGKIQHGLVHILKLPVFTDRGEMRVLKSEWAFKNGRKKFEIEQWGIPVDDAEGSAASEQSHSHSHSDEISHNIPAKKTKISLDY
notes: Elp4, S. cerevisiae, endogenous protein; source: endogenous, S. cerevisiae strains BS1173 and BSY2369, co-purified with Elp1-TAP or Elp6-TAP
B2: synthetic peptide of the conserved N-terminal region of Elp4 (aa1–10) (peptide, UniProt Q02884 1-10, looked up)
peptide: MSFRKRGEIL
notes: Elp4, S. cerevisiae, residues 1–10; source: synthetic peptide (Peptide Specialty Laboratories, Germany)
B3: Full-length His6-tagged ScElp3, refolded and anaerobically reconstituted (enzyme, S. cerevisiae, UniProt Q02908 1-557, looked up)
chain: MARHGKGPKTNKKKLAPEKERFIQCCADITLELTDSLTSGTTREINLNGLITKYSKKYKLKQQPRLTDIINSIPDQYKKYLLPKLKAKPVRTASGIAVVAVMCKPHRCPHIAYTGNICVYCPGGPDSDFEYSTQSYTGYEPTSMRAIRARYDPYEQARGRVEQLKQLGHSIDKVEYVLMGGTFMSLPKEYREDFIVKLHNALSGFNGNDIDEAILYSQQSLTKCVGITIETRPDYCTQTHLDDMLKYGCTRLEIGVQSLYEDVARDTNRGHTVRSVCETFAVSKDAGYKVVSHMMPDLPNVGMERDIEQFKEYFENPDFRTDGLKIYPTLVIRGTGLYELWKTGRYKSYSANALVDLVARILALVPPWTRIYRVQRDIPMPLVTSGVDNGNLRELALARMKDLGTTCRDVRTREVGIQEVHHKVQPDQVELIRRDYYANGGWETFLSYEDPKKDILIGLLRLRKASKKYTYRKEFTSQRTSIVRELHVYGSVVPLHSRDPRKFQHQGFGTLLMEEAERIAKEEHGSEKISVISGVGVRNYYGKLGYELDGPYMSKRI
notes: Elp3, Elongator subunit 3, S. cerevisiae; Carries a reconstituted Fe/S cluster; also called ScElp3H6
B4: endogenous Elp3 (enzyme, UniProt Q02908 1-557, looked up)
chain: B3 chain
notes: Elp3, S. cerevisiae, endogenous protein; source: endogenous, S. cerevisiae strains BS1173 and BSY2369, co-purified with Elp1-TAP or Elp6-TAP
B5: endogenously TAP-tagged Elp1 (natural protein, UniProt Q06706 1-1349, looked up)
chain: T2 sequence (looked up)
notes: Elp1, S. cerevisiae, endogenous protein with TAP tag (Elp1-TAP::TRP1); also called Elp1-TAP
B6: synthetic peptide of the conserved N-terminal region of Elp4 (aa1–27) (peptide, UniProt Q02884 1-27, looked up)
peptide: MSFRKRGEILNDRGSGLRGPLLRGPPR
notes: Elp4, S. cerevisiae, residues 1–27; source: synthetic peptide (Peptide Specialty Laboratories, Germany)

Legend:
endogenous Elp3 = molecular target: B4; test: cross-linking; XL-MS of purified Elongator (Elp1-TAP sample, 1 mg/ml) with isotope-coded DSS or DSG, 0.5–2 mM, 30 min at 37°C; xQuest/xProphet, ld score at least 30; conditions: both partners purified
[1] = molecular target: B5; test: tandem-affinity purification (SDS–PAGE); endogenous TAP-tagged bait from yeast lysate; IgG Sepharose, TEV elution, Calmodulin Sepharose, EGTA elution; HEPES pH 7.9, 125 mM NaCl; conditions: partners not purified
[2] = molecular target: T1, purified N-terminal region of Elp1; test: ITC; VP-ITC; 20 mM Tris–HCl pH 7.5, 150 mM NaCl, 2 mM β-mercaptoethanol; 10 μM in the cell, 100 μM in the syringe; conditions: both partners purified
[3] = molecular target: T2, GST-tagged full-length Elp1; test: pull-down; GST pull-down: 20 μg GST-tagged protein and increasing amounts of untagged partner with glutathione Sepharose, 2 h at 4°C, 20 mM Tris pH 7.5, 150 mM NaCl, 5 mM DTT, 0.1% Tween-20; five washes; SDS–PAGE, Coomassie; conditions: both partners purified
[4] = molecular target: the molecule itself; test: negative-stain EM reconstruction with integrative modelling (EM map and cross-links); Elp123 sub-complex from Elp1-TAP purification, 0.01% glutaraldehyde, gel filtration; 1% uranyl acetate; C2 symmetry, 27 Å

binding result [1] | Kd [2] | Binder | other results
binds |  | B1 | binding result (endogenous Elp3): binds
 | 2700 ± 300 nM | B2 | 
 |  | B3 | binding result [3]: binds
binds |  | B4 | 
 |  | B5 | stoichiometry N [4]: 2
 | 1600 ± 400 nM | B6 | 
